Target: the molecule itself
Test: AUC; sedimentation velocity, 60000 rpm, 20°C, buffer F (50 mM Na2HPO4-NaH2PO4/pH 7.5), protein at 0.6 and 1.0 mg/mL, absorption at 238 nm

B1: Mth10b from Methanobacterium thermoautotrophicum ΔH (natural protein, UniProt O27527 2-91, looked up)
chain: SEENVVYIGNKPVMNYVLAVVTQMNGGTSEVILKARGIAISRAVDVAEIVRNRFIPDIQIENIDICTEEIIGNEGTATNVSAIEIQLRKD
notes: Mth10b, Sac10b family protein of Methanobacterium thermoautotrophicum ΔH, gene MTH1483; whole gene cloned with primers from the start codon to the stop codon; No tag (pET11a, NdeI/BamHI); also called MTH1483; source: Escherichia coli BL21 (DE3), pET11a, purified (Q Sepharose Fast Flow, Phenyl Sepharose High Performance, Resource-S)
stoichiometry N: 2

— PMC3097224, “Mth10b, a Unique Member of the Sac10b Family, Does Not Bind Nucleic Acid” (PLoS ONE, 2011)
